Laboratory results as given in publication PMC3035719.

Columns and labels:
MBP-DGKδSAM-H38A/V52E = experiment: SPR
MBP-DGKδSAM-V52E = MBP-DGKδSAM-V52E (UniProt Q16760); experiment: SPR

Kd (MBP-DGKδSAM-H38A/V52E): 23 µM
Kd (MBP-DGKδSAM-V52E): 12.2 µM
Substance: MBP-DGKδSAM-E35G (domain or fragment)
